From the supplement of paper PMC10126150
± gives the standard deviation of the averaged measurements.

Test system: ATP
Experiment: switch fluorescence ratio, 500 uM ATP over buffer (Cy3 cluster intensity, sum of 5 cycles each) (fold (ratio)); higher = stronger signal-on switching upon ATP binding; sequences stand for … in TCGTCGGCAGCGTCAGATGTGTATAAGAGACAGTTTTTTTTTTTTTTTTTTTTTTTTT…TC
Conditions: aptamer strand: ATP DNA aptamer (quencher-CACCTGGGGGAGTATTGCGGAGGAAGG + anchor), 100 nM annealed; ATP concentration: 500 uM
How it was run: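 The fluorescence ratio divides summed target-cycle Cy3 intensity by summed buffer-cycle Cy3 intensity for each cluster and is averaged per switch-domain sequence. Cy3-labelled switching-strand clusters on a modified Illumina MiSeq flow-cell were annealed to 100 nM quencher-labelled ATP aptamer, then imaged in selection buffer and again after 15 min with 500 uM ATP at 22 °C. Five such cycles were run, with NaOH stripping and re-annealing between them, and clusters outside 100-1000 RFU were excluded.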
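Note: ATP exposure 15 min at 22 °C before imaging.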

| Sequence | switch fluorescence ratio |
| --- | --- |
| GGCTAATGCG | 1.01 ± 0.036 |
| AGAAAGGGGC | 1.31 ± 0.31 |
| CTTACAGCTT | 1.04 ± 0.023 |
| CCAGTGTGTG | 1.09 ± 0.062 |
| CATGCATGTT | 1.01 ± 0.029 |
| GGTTATCTTG | 1.01 ± 0.019 |
| CCTAGGGAAG | 0.9972 ± 0.0046 |
| AAAGTGGTTG | 0.984 ± 0.024 |
| ATGGACGCTA | 1.12 ± 0.048 |
| TGCGGCTTCG | 0.913 ± 0.061 |
| TGCAATGTTG | 1.04 ± 0.047 |
| AGGCCCACGG | 1.006 ± 0.0067 |
| CGCACCGGTG | 1.02 ± 0.032 |
| ATTACGCTGG | 1.01 ± 0.024 |
| TGTTATAATG | 1.03 ± 0.068 |
| ATATAATACG | 1.01 ± 0.024 |
| TAAGATATTA | 0.998 ± 0.02 |
| GCCAGCATAT | 1.153 ± 0.0062 |
| AAAAGGTGG | 0.983 ± 0.011 |
| AATTTATTGG | 1.01 ± 0.013 |
| CTTACGGTCG | 1.02 ± 0.038 |
| TCACATGTGG | 1.03 ± 0.044 |
| TTAGGTTATT | 0.9786 ± 0.0027 |
| GCTGAAGGTT | 1.25 ± 0.36 |
| ATCGGTGACA | 1 ± 0.035 |

| Sequence | switch fluorescence ratio |
| --- | --- |
| TAAGGCGGTC | 0.991 ± 0.098 |
| TGGGGCGTGC | 1.06 ± 0.065 |
| TAGAGGGCCA | 1.01 ± 0.044 |
| CAGAAAGATA | 0.997 ± 0.018 |
| GCCTTGTATG | 0.976 ± 0.03 |
| TCTTGAGCTT | 1.04 ± 0.03 |
| TTAAGGGAAT | 1 ± 0.011 |
| CGACGATACG | 0.991 ± 0.022 |
| ATTAAGGA | 1 ± 0.051 |
| TTGCCAGTGT | 0.996 ± 0.028 |
| GATGTTAAAC | 1.06 ± 0.02 |
| AAGTAATAGG | 1.03 ± 0.019 |
| TATCAGGTAG | 1.001 ± 0.0052 |
| TAGGGGGGAC | 1.19 ± 0.34 |
| ACGTTGGGTC | 1.02 ± 0.06 |
| TTGGGGCCAG | 1.09 ± 0.12 |
| TGGGGGAAGT | 1.01 ± 0.029 |
| GTCATAGGGG | 1.01 ± 0.026 |
| TGACCGCTTT | 1.12 ± 0.029 |
| TGCGTTGGTG | 1.006 ± 0.0061 |
| AAAAGTTTGC | 1.02 ± 0.056 |
| TACGTGGCGG | 1.02 ± 0.02 |
| AACCGTTGAC | 1.21 ± 0.02 |
| TTTTTCCCGA | 1.018 ± 0.0038 |
| CAGGGGCGGG | 0.966 ± 0.11 |

| Sequence | switch fluorescence ratio |
| --- | --- |
| CGGGGTCCTC | 1.01 ± 0.018 |
| TGAGTTAGTT | 1.01 ± 0.016 |
| GGGCAGAGGC | 1.06 ± 0.029 |
| AATCTGTTCG | 0.9708 ± 0.004 |
| GCAGGCCCGA | 1.009 ± 0.0034 |
| AAGTTGTGTA | 0.993 ± 0.031 |
| ATAAGGCCCG | 1.04 ± 0.078 |
| ACGGGATTAA | 1.04 ± 0.051 |
| GATGGGGGTG | 1.02 ± 0.053 |
| GATTATATAG | 0.957 ± 0.019 |
| CATGGGGTAA | 0.99 ± 0.014 |
| GGAATTTCGG | 1.17 ± 0.23 |
| TAGAAATTGT | 0.997 ± 0.039 |
| TACGTACAGC | 1.7 ± 0.076 |
| TGAGTTGACT | 1 ± 0.015 |
| ATATTTACTA | 1.11 ± 0.11 |
| CATGAATTGT | 0.974 ± 0.019 |
| CGCCATGGAA | 1 ± 0.017 |
| CCACGCGGCA | 1.19 ± 0.091 |
| AGTGCGGCCG | 0.9846 ± 0.0036 |
| TATTGAGATA | 1.01 ± 0.04 |
| ATTTTGCTGG | 0.999 ± 0.011 |
| TTTAAGGGTT | 1.02 ± 0.054 |
| TATAAGGAGG | 0.9935 ± 0.0033 |
| GGGAGTGGGC | 0.87939 ± 0.00069 |

| Sequence | switch fluorescence ratio |
| --- | --- |
| CGGGGGAAAC | 0.977 ± 0.015 |
| ATTGTTTTCG | 1 ± 0.029 |
| GTTGGTTAGG | 0.959 ± 0.0071 |
| ATGGACCTGC | 1.06 ± 0.064 |
| TTTTACGCAG | 1.03 ± 0.044 |
| CATGGTATTT | 0.9797 ± 0.0095 |
| TAATTGGGTG | 1.09 ± 0.031 |
| TGTTTAGGTT | 1.01 ± 0.071 |
| CGACAGGATG | 1.01 ± 0.033 |
| TGAGGGGT | 0.958 ± 0.027 |
| CGTAGGGGAA | 0.993 ± 0.02 |
| GCGTCGGTGT | 0.98 ± 0.01 |
| TTTCAATCTG | 1.04 ± 0.038 |
| TCGTGGGGGG | 0.991 ± 0.031 |
| TATGGTGTAG | 1 ± 0.043 |
| CTATACGGCA | 1.09 ± 0.011 |
| TGTCAGACGT | 1 ± 0.011 |
| ATAGGGATTG | 0.996 ± 0.031 |
| CCAAAGGGGA | 1.15 ± 0.27 |
| GGGACTTTAC | 1.18 ± 0.038 |
| ATATTTTGGG | 1.003 ± 0.0089 |
| TTATCTGGAA | 1.06 ± 0.055 |
| ACGGGTGGGG | 1.05 ± 0.051 |
| TGCGTCAAAT | 0.999 ± 0.024 |
| GGGAAGAGGA | 0.979 ± 0.025 |
